Test results reported in article PMC6686036, “Structural Basis for the Differential Regulatory Roles of the PDZ Domain in C-Terminal Processing Proteases” (mBio, 2019).

Experiments:
Test in all cases: crystal structure; purified Prc mutant and sNlpI mixed in a 1:2 molar ratio, complex isolated on Superdex 200 (25 mM Tris-HCl pH 8.0, 150 mM NaCl); hanging-drop vapor diffusion at 22°C (16°C for sNlpI–Prc-ΔPDZ)
Prc-L245A/L340G = molecular target: T1, Prc-L245A/L340G (E. coli, UniProt P23865 23-682, L245A | L340G); conditions: both partners purified
T1 construct: also called Prc L245A/L340G double mutant; source: E. coli ΔPrc cells (strain MR812), purified (Ni-NTA, Mono Q, Superdex 200 with sNlpI)
T1 sequence (looked up): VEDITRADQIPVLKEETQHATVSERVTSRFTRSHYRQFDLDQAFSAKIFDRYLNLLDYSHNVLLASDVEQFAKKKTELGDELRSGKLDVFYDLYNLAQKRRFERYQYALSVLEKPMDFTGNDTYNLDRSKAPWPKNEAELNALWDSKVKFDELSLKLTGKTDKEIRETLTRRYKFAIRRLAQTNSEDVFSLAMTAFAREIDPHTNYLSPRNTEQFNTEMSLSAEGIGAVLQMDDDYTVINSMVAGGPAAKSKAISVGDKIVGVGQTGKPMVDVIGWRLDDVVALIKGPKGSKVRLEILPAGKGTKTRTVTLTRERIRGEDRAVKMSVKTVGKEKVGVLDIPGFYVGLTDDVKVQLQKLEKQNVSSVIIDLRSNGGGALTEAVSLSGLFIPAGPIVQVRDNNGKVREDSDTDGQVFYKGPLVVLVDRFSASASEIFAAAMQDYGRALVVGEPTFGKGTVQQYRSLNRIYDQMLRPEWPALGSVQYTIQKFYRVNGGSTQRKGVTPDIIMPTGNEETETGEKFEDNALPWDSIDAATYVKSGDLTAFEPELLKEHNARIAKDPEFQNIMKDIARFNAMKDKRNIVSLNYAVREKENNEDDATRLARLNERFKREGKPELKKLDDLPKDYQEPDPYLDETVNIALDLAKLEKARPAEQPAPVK

[1] = molecular target: T2, Prc-ΔPDZ (Prc with the deletion of residues 247 to 339) (E. coli, UniProt P23865 23-682, Δ247-339); conditions: both partners purified
T2 construct: Prc (Tsp), tail-specific C-terminal processing protease of E. coli, with the PDZ domain (residues 247 to 339) deleted; cloned into pTrc99A; also called Prc-PDZ; source: E. coli ΔPrc cells (strain MR812), purified (Ni-NTA, Mono Q, Superdex 200 with sNlpI)
T2 sequence (looked up): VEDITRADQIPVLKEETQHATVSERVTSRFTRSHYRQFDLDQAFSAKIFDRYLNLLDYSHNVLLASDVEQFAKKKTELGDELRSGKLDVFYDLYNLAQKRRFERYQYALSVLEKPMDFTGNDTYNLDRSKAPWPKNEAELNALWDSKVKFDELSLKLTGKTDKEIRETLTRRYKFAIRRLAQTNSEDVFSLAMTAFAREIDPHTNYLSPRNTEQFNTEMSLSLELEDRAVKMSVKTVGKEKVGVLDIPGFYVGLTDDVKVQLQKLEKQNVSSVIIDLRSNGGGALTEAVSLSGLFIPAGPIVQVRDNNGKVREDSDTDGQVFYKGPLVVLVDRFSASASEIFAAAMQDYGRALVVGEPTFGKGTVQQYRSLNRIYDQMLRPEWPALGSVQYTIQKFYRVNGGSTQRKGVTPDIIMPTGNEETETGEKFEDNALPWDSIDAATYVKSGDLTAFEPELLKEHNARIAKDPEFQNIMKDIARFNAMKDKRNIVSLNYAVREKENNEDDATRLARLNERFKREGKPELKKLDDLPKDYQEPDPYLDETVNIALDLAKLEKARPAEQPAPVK

Prc-S452I/L252Y = molecular target: T3, Prc-S452I/L252Y (E. coli, UniProt P23865 23-682, S452I | L252Y); conditions: both partners purified
T3 construct: also called Prc S452I/L252Y double mutant; unliganded resting Prc; source: E. coli ΔPrc cells (strain MR812), purified (Ni-NTA, Mono Q, Superdex 200 with sNlpI)
T3 sequence (looked up): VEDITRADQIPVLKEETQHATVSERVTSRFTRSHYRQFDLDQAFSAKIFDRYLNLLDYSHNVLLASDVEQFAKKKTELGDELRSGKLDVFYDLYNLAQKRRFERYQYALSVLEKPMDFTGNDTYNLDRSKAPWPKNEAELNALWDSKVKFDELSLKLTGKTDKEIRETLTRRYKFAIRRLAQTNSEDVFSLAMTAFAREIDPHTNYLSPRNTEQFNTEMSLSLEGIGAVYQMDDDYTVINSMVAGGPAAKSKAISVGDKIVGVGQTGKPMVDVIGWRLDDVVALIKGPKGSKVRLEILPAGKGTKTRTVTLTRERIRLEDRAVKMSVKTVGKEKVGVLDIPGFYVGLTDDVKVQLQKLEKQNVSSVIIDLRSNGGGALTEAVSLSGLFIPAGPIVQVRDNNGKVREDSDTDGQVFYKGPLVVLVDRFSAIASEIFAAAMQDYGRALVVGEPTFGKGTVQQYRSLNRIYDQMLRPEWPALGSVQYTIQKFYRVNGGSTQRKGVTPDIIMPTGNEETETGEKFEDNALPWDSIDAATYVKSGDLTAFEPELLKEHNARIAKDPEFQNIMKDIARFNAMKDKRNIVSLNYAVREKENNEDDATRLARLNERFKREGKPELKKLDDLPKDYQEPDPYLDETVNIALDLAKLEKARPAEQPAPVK

[2] = molecular target: the molecule itself

B1: soluble form of NlpI (sNlpI) (natural protein, E. coli, UniProt P0AFB1 19-294, looked up)
chain: CSNTSWRKSEVLAVPLQPTLQQEVILARMEQILASRALTDDERAQLLYERGVLYDSLGLRALARNDFSQALAIRPDMPEVFNYLGIYLTQAGNFDAAYEAFDSVLELDPTYNYAHLNRGIALYYGGRDKLAQDDLLAFYQDDPNDPFRSLWLYLAEQKLDEKQAKEVLKQHFEKSDKEQWGWNIVEFYLGNISEQTLMERLKADATDNTSLAEHLSETNFYLGKYYLSLGDLDSATALFKLAVANNVHNFVEHRYALLELSLLGQDQDDLAESDQQ
notes: NlpI of E. coli without its lipoprotein signal peptide (expressed without the lipid anchor); a TEV protease cleavage site follows the N-terminal His tag; source: E. coli BL21(λDE3), purified (Ni-NTA, Mono Q, Superdex 200 with Prc)
binding result (Prc-L245A/L340G): binds | binding result [1]: binds | binding result (Prc-S452I/L252Y): binds | stoichiometry N [2]: 2
